PMC11876699, “Elongator is a microtubule polymerase selective for polyglutamylated tubulin” (The EMBO Journal, 2025)
Values belong to the molecule of their own block, whether it stands above or below them.

B3: eGFP-Elp456 (Drosophila, wild type) (complex)
chain 1: MTSFRKRTVQKPIRGTRTSPHTAQVITSSGNPYLDVVIGGGLPMGSICLIEEDRFMTHAKVLAKYFLAEGVISKQEIFLGSLDDIPAEMLRRLPRPLTDQESMEQSEVQALGDAGAENGLRIAWRYNDLPLVNSEHATAKIGHHFNLMEQMDSMMLYNVKTTLWDDSPKHLDIVIDEEFSKSSSPTTPSLEQQPVEDAPPIPGTETAPQEKMPAQEEENSANNNNNNNNNSSSVTSSTKTGSQDSPLQVFHNPRYKGLLNDIQQLLRNESFVAGTKNNLCRVCLTSLGSPLWYDEHFGEDLIKFLTLLMASVRNCNSVCLITMPMHLIAKYDASLVPKIRQLVDYAIELESFAGSERETHPAFKEYSGLLHLHKMSAINTLAVHMPETPDLAFKLRRKKFIIEKFHLPPELQESSAKPDNCISGLLSNSNATASLDF
chain 2: MLSNLVVTKQKVVLVIDELNRERIAPKFIGSLLHEQGQGADTIKALPTGVSLKHVATFEALIDKYANNNTGSTTDSNSTGFNVILPTLADLLCYQTPAFIFGFLNRLRRSDNVRRVFLWASPQHLQDPHADYILAGCEYLAELVLRLESDKLLSLISRKPGGGVSNRRYSCEVSKTQFKVTPLDGGLPAGASPKQPSPEAEQTTEPASSTFKIELDEDEVLARNALTLPYERTSEPSEGNIIYTPDADDDFDEEDPDEDLCI
chain 3: MATSVLLACGLNEQKLPGFVHISEESNVDASFLISCVLGQRLRISNAGTLLVCLQHHYQHYFNAGMRLGYNTNIFQGKTLGVIDVLSDMAGEGLASKWLTNTEGQTLTDQLVEDIRAQVERNYASRNSYTVLIDNLSILFNLGASKLQVQQFCQDLAALGKEREKLTVITKLSNSDIYQLTDNNVAKLGQVRIQVLRLKSGVFREVDGKLLIERVLDEGNYACEETRKEVLYKVNDRNVKVFAPGEIGVKV
notes: Elp4, Drosophila melanogaster; Elp5, Drosophila melanogaster; ORF; Elp6, Drosophila melanogaster; it is put on Elp4 here only by the name eGFP-Elp456 (surmised); also called eGFP-Elp456 (WT); source: E. coli BL21 (DE3) Rosetta2, purified (Glutathione Sepharose, TEV elution, Superdex 200); not shown: GST, N-terminal, cleaved; copies: 2 + 2 + 2

What was measured:
[1] = molecular target: B3; assay: MST; Monolith X, 25 °C; eGFP-Elp456 (WT or mutated) constant at 50 nM, tubulin or Elp123 in twofold dilution series; binding buffer with 0.05% Tween-20
[2] = molecular target: eGFP-Elp456 solo (Drosophila, three point mutations in each subunit) (Drosophila) (UniProt Q9VMQ7); assay: as above
[3] = molecular target: B3; assay: MST; as a11, with 100 µM tRNA (and 2.5 mM MgATP by the legend) in the buffer of both partners; settings: both partners purified
[4] = molecular target: microtubules assembled from porcine brain tubulin (pig, UniProt Q2XVP4 1-451, rhodamine, AMCA, HiLyte 647 or biotin on part of the tubulin, by experiment); assay: TIRF microscopy of decorated microtubules; GMPCPP-stabilized microtubules settled on passivated glass, proteins added one after the other in BRB80 imaging buffer; 100 nM 488-SNAP-Elongator or 488-SNAP-Elp123, 500 nM mScarlet-Elp456, 15 µM 647-GTP-Tubulin; settings: both partners purified
[5] = molecular target: T1, Elp123 subcomplex (Drosophila Elp1, Elp2 and His6-PC-SNAP-Elp3) (Drosophila melanogaster, UniProt Q9VGK7 1-1252; Q7K4B3 1-794; Q9VQZ6 1-552, Alexa Fluor 488 on the SNAP tag); assay: MST; Monolith X, 25 °C; eGFP-Elp456 (WT or mutated) constant at 50 nM, tubulin or Elp123 in twofold dilution series; binding buffer with 0.05% Tween-20; settings: both partners purified
T1 construct: Elp1, Drosophila melanogaster, codon-optimised synthetic gene, untagged; Elp2, Drosophila melanogaster, codon-optimised synthetic gene, untagged; Elp3, Drosophila melanogaster, codon-optimised synthetic gene; Elutes at about 600 kDa, a dimer of Elp1-Elp2-Elp3 protomers; source: Sf9, baculovirus (biGBac pBig1a), purified (Protein C resin, heparin, Superose 6); not shown: His6, N-terminal, kept; …
T1 sequence (Q9VGK7 whole entry, chain 1 of 3): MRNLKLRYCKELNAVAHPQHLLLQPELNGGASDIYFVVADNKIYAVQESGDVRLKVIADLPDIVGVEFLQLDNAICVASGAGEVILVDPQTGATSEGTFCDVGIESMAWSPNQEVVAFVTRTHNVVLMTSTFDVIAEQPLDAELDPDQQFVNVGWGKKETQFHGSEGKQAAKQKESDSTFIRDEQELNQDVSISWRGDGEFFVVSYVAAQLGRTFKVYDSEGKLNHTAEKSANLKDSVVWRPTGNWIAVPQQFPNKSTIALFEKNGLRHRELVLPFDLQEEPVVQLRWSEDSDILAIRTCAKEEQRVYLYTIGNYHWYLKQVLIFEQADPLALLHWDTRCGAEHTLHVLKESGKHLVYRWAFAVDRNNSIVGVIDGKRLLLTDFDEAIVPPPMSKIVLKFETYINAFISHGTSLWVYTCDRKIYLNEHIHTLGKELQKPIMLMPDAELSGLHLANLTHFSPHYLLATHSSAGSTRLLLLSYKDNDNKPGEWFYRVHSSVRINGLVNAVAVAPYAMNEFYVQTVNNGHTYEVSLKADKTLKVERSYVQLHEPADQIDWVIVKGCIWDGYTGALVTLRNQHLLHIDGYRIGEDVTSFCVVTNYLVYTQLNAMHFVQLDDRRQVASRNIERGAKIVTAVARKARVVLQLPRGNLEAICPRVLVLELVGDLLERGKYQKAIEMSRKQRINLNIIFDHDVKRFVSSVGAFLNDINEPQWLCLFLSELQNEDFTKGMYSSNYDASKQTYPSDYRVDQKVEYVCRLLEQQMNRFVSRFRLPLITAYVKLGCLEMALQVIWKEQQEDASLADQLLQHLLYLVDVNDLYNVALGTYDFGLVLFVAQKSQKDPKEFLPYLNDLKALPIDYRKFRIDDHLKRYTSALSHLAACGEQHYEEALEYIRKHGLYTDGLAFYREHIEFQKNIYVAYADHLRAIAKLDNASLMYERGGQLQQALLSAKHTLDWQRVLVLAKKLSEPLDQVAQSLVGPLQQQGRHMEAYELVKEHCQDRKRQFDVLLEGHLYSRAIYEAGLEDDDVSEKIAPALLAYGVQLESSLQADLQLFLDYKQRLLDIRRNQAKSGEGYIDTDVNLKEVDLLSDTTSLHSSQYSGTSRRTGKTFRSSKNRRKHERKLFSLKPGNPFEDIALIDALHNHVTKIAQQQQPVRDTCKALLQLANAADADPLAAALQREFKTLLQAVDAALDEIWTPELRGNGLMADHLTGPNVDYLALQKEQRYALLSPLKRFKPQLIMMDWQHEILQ
T1 sequence (Q7K4B3 whole entry, chain 2 of 3): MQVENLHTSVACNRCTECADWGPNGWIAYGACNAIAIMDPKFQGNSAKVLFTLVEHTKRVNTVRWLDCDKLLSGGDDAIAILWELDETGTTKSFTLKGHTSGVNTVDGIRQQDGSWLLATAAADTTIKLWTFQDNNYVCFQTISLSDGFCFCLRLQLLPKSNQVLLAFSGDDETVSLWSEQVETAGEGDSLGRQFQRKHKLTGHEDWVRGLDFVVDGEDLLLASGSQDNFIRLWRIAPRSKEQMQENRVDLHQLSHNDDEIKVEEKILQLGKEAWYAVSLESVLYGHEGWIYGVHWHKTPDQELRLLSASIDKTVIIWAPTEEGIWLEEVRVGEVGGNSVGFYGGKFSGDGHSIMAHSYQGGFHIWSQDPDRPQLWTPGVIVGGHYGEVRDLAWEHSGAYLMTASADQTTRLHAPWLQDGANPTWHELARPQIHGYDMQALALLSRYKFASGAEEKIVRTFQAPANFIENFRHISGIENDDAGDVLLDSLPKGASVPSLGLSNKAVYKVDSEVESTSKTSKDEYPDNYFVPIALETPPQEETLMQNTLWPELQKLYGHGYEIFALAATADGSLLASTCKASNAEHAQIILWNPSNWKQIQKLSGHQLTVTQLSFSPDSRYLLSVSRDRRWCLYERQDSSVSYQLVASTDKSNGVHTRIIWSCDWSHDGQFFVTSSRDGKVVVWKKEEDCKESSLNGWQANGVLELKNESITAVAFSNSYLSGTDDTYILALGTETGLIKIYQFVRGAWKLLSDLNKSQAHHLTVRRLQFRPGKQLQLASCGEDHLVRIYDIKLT
T1 sequence (Q9VQZ6 whole entry, chain 3 of 3): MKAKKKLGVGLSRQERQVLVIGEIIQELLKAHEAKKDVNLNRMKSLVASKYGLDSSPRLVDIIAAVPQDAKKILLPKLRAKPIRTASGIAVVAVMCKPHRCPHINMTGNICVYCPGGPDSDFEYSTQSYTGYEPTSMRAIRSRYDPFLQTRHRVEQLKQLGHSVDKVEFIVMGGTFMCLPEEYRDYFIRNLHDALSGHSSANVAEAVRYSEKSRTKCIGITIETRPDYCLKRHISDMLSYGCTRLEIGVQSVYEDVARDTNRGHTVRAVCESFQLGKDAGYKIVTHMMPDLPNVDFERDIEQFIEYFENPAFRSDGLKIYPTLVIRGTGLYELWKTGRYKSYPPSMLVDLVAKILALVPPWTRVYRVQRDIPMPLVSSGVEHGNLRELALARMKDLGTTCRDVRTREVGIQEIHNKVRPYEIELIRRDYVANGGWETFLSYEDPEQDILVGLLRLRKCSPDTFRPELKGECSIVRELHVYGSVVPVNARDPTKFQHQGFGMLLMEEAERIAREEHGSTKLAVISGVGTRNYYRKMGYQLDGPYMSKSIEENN

Kd [1]: > 22 µM
Molecule: de-tyrosinated HeLa S3 tubulin (treated with carboxypeptidase A) (from UniProt P68363 1-451; P07437 1-444) (complex)

Kd [1]: 1.8 µM
Molecule: pig brain tubulin (free GTP-αβ-tubulin heterodimers) (from UniProt Q2XVP4 1-451; P02554 1-445) (complex)

Kd [1]: 21.2 µM
Molecule: tubulin purified from HeLa S3 cells (from UniProt P68363 1-451; P07437 1-444) (complex)

Kd [2]: 0.0671 µM
Molecule: Elp123 subcomplex (Drosophila Elp1, Elp2 and His6-PC-SNAP-Elp3) (from UniProt Q9VGK7 1-1252; Q7K4B3 1-794; Q9VQZ6 1-552)

Kd [1]: > 25 µM
Molecule: tubulin purified from TTLL1/7-double KO mouse brain (lacking polyglutamylation) (from UniProt P68369 1-451; Q7TMM9 1-445) (complex)

Kd ([1]; both partners purified): 1.2 µM
Kd [3]: 2.9 µM
Kd [2]: 1.6 µM
B1: recombinant Drosophila α1β1-tubulin heterodimers (His6-PC-tubulin α1 84B with co-purified tubulin β1 56D) (complex)
chain 1: MRECISIHVGQAGVQIGNACWELYCLEHGIQPDGQMPSDKTVGGGDDSFNTFFSETGAGKHVPRAVFVDLEPTVVDEVRTGTYRQLFHPEQLITGKEDAANNYARGHYTIGKEIVDLVLDRIRKLADQCTGLQGFLIFHSFGGGTGSGFTSLLMERLSVDYGKKSKLEFAIYPAPQVSTAVVEPYNSILTTHTTLEHSDCAFMVDNEAIYDICRRNLDIERPTYTNLNRLIGQIVSSITASLRFDGALNVDLTEFQTNLVPYPRIHFPLVTYAPVISAEKAYHEQLSVAEITNACFEPANQMVKCDPRHGKYMACCMLYRGDVVPKDVNAAIATIKTKRTIQFVDWCPTGFKVGINYQPPTVVPGGDLAKVQRAVCMLSNTTAIAEAWARLDHKFDLMYAKRAFVHWYVGEGMEEGEFSEAREDLAALEKDYEEVGMDSGDGEGEGAEEY
chain 2: MREIVHIQAGQCGNQIGAKFWEIISDEHGIDATGAYHGDSDLQLERINVYYNEASGGKYVPRAVLVDLEPGTMDSVRSGPFGQIFRPDNFVFGQSGAGNNWAKGHYTEGAELVDSVLDVVRKEAESCDCLQGFQLTHSLGGGTGSGMGTLLISKIREEYPDRIMNTYSVVPSPKVSDTVVEPYNATLSVHQLVENTDETYCIDNEALYDICFRTLKLTTPTYGDLNHLVSLTMSGVTTCLRFPGQLNADLRKLAVNMVPFPRLHFFMPGFAPLTSRGSQQYRALTVPELTQQMFDAKNMMAACDPRHGRYLTVAAIFRGRMSMKEVDEQMLNIQNKNSSYFVEWIPNNVKTAVCDIPPRGLKMSATFIGNSTAIQELFKRISEQFTAMFRRKAFLHWYTGEGMDEMEFTEAESNMNDLVSEYQQYQEATADEDAEFEEEQEAEVDEN
modifications: the paper calls this tubulin highly modified (polyglutamylated, acetylated and partially detyrosinated)
notes: tubulin α1 84B, Drosophila melanogaster, codon-optimised gene; tubulin β1 56D, Drosophila melanogaster, endogenous, co-purified with the tagged α chain; also called recombinant Drosophila tubulin; PC-α-Tubulin; source: D.mel-2 (S2) cells stably transfected (pMT Puro), purified (Protein C resin, Superdex 200); also in S2 cell lysate; not shown: His6, N-terminal, kept; PC, N-terminal, kept

fold less fluorescence intensity on microtubules without Elp123 than with it [4]: 9.3 fold
B2: mScarlet-Elp456 (Drosophila) (complex)
chain 1: MTSFRKRTVQKPIRGTRTSPHTAQVITSSGNPYLDVVIGGGLPMGSICLIEEDRFMTHAKVLAKYFLAEGVISKQEIFLGSLDDIPAEMLRRLPRPLTDQESMEQSEVQALGDAGAENGLRIAWRYNDLPLVNSEHATAKIGHHFNLMEQMDSMMLYNVKTTLWDDSPKHLDIVIDEEFSKSSSPTTPSLEQQPVEDAPPIPGTETAPQEKMPAQEEENSANNNNNNNNNSSSVTSSTKTGSQDSPLQVFHNPRYKGLLNDIQQLLRNESFVAGTKNNLCRVCLTSLGSPLWYDEHFGEDLIKFLTLLMASVRNCNSVCLITMPMHLIAKYDASLVPKIRQLVDYAIELESFAGSERETHPAFKEYSGLLHLHKMSAINTLAVHMPETPDLAFKLRRKKFIIEKFHLPPELQESSAKPDNCISGLLSNSNATASLDF
chain 2: MLSNLVVTKQKVVLVIDELNRERIAPKFIGSLLHEQGQGADTIKALPTGVSLKHVATFEALIDKYANNNTGSTTDSNSTGFNVILPTLADLLCYQTPAFIFGFLNRLRRSDNVRRVFLWASPQHLQDPHADYILAGCEYLAELVLRLESDKLLSLISRKPGGGVSNRRYSCEVSKTQFKVTPLDGGLPAGASPKQPSPEAEQTTEPASSTFKIELDEDEVLARNALTLPYERTSEPSEGNIIYTPDADDDFDEEDPDEDLCI
chain 3: MATSVLLACGLNEQKLPGFVHISEESNVDASFLISCVLGQRLRISNAGTLLVCLQHHYQHYFNAGMRLGYNTNIFQGKTLGVIDVLSDMAGEGLASKWLTNTEGQTLTDQLVEDIRAQVERNYASRNSYTVLIDNLSILFNLGASKLQVQQFCQDLAALGKEREKLTVITKLSNSDIYQLTDNNVAKLGQVRIQVLRLKSGVFREVDGKLLIERVLDEGNYACEETRKEVLYKVNDRNVKVFAPGEIGVKV
notes: Elp4, Drosophila melanogaster; Elp5, Drosophila melanogaster; ORF; Elp6, Drosophila melanogaster; put on Elp4 here by the name only (surmised); source: E. coli BL21 (DE3) Rosetta2, purified (Glutathione Sepharose, TEV elution, Superdex 200); not shown: GST, N-terminal, cleaved; copies: 2 + 2 + 2

Molecule: B3
Kd [5]: 0.0155 ± 0.0037 µM
